According to US20240270821A1, “GIP/GLP1/GCG TRI-RECEPTOR AGONISTS AND USES THEREOF” (priority 2023, published 2024):
Substitutions are numbered along the chain they refer to.

B1: Example 1165 (peptide)
chain: YXQGTXTSDXXIXLDXKAQXEFIEXLIEGGPSSGEPPPSGE
modifications: non-natural residues (Aib, αMeF, 4Pal, Orn, Me4Pal); lipidated Lys; C-amide; synthetic construct; SITE 2: note = 2-Aminoisobutyric Acid; SITE 6: note = alpha-methyl-L-phenylalanine; SITE 10: note = 3-(4-Pyridyl)-L-alanine; SITE 11: note = alpha-methyl-L-serine; SITE 13: note = alpha-methyl-leucine; SITE 16: note = L-ornithine; SITE 17: note = Lysine is chemically modified th
B2: Example 1170 (peptide)
chain: B1 chain with E35A
modifications: non-natural residues; acylated Lys; C-terminal amide; synthetic construct; SITE 2: note = 2-Aminoisobutyric Acid; SITE 6: note = alpha-methyl-L-phenylalanine; SITE 10: note = 3-(4-Pyridyl)-L-alanine; SITE 11: note = alpha-methyl-L-serine; SITE 13: note = alpha-methyl-leucine; SITE 16: note = L-ornithine; SITE 17: note = Lysine is chemically modified th
B3: Example 1162 (peptide)
chain: YXQGTXTSDXXIXLDXKAQXEFIEXLVEGGPSSGAPPPSGSE
modifications: non-natural residues; Lys acylated C18 diacid via γGlu2; C-term amide; synthetic construct; SITE 2: note = 2-Aminoisobutyric Acid; SITE 6: note = alpha-methyl-2-fluoro-L-phenylalanine; SITE 10: note = 3-(4-Pyridyl)-L-alanine; SITE 11: note = alpha-methyl-L-serine; SITE 13: note = alpha-methyl-leucine; SITE 16: note = L-ornithine; SITE 17: note = Lysine is chemically mo
B4: Example 1163 (peptide)
chain: B3 chain with A35E
modifications: non-natural residues; lipidated Lys; C-terminal amide; synthetic construct; SITE 2: note = 2-Aminoisobutyric Acid; SITE 6: note = alpha-methyl-2-fluoro-L-phenylalanine; SITE 10: note = 3-(4-Pyridyl)-L-alanine; SITE 11: note = alpha-methyl-L-serine; SITE 13: note = alpha-methyl-leucine; SITE 16: note = L-ornithine; SITE 17: note = Lysine is chemically mo
B5: Example 1173 (peptide)
chain: B3 chain with V27I, A35E
modifications: (γGlu)2-C18 diacid on Lys; non-natural residues; amide; synthetic construct; SITE 2: note = 2-Aminoisobutyric Acid; SITE 6: note = alpha-methyl-L-phenylalanine; SITE 10: note = …; SITE 11: note = alpha-methyl-L-serine; SITE 13: note = alpha-methyl-leucine; SITE 16: note = L-ornithine; SITE 17: note = Lysine is chemically modified th
B6: Example 1166 (peptide)
chain: B3 chain with V27I
modifications: Aib, αMeF, 4Pal, αMeS, αMeL, Orn, Me4Pal, αMeY, acyl, amide; synthetic construct; SITE 2: note = 2-Aminoisobutyric Acid; SITE 6: note = alpha-methyl-L-phenylalanine; SITE 10: note = 3-(4-Pyridyl)-L-alanine; SITE 11: note = alpha-methyl-L-serine; SITE 13: note = alpha-methyl-leucine; SITE 16: note = L-ornithine; SITE 17: note = Lysine is chemically modified th
B7: Example 1179 (peptide)
chain: B3 chain with V27I, A35E
modifications: non-natural residues, C-terminal amide, acylated Lys with fatty diacid; synthetic construct; SITE 2: note = 2-Aminoisobutyric Acid; SITE 6: note = alpha-methyl-2-fluoro-L-phenylalanine; SITE 10: note = 3-(4-Pyridyl)-L-alanine; SITE 11: note = alpha-methyl-L-serine; SITE 13: note = alpha-methyl-leucine; SITE 16: note = L-ornithine; SITE 17: note = Lysine is chemically mo
B8: Example 1178 (peptide)
chain: B3 chain with V27I
modifications: non-natural residues; AEEA-(γGlu)2-C18 diacid on Lys; amide; synthetic construct; SITE 2: note = 2-Aminoisobutyric Acid; SITE 6: note = alpha-methyl-2-fluoro-L-phenylalanine; SITE 10: note = 3-(4-Pyridyl)-L-alanine; SITE 11: note = alpha-methyl-L-serine; SITE 13: note = alpha-methyl-leucine; SITE 16: note = L-ornithine; SITE 17: note = Lysine is chemically mo
B9: Example 1172 (peptide)
chain: B3 chain with V27I
modifications: Aib, αMe residues, 4Pal, Orn, Me4Pal; acylated K; amide; synthetic construct; SITE 2: note = 2-Aminoisobutyric Acid; SITE 6: note = alpha-methyl-L-phenylalanine; SITE 10: note = 3-(4-Pyridyl)-L-alanine; SITE 11: note = alpha-methyl-L-serine; SITE 13: note = alpha-methyl-leucine; SITE 16: note = L-ornithine; SITE 17: note = Lysine is chemically modified th
B10: Example 1167 (peptide)
chain: B3 chain with V27I, A35E
modifications: non-natural residues; Lys acylated C18 diacid; C-terminal amide; synthetic construct; SITE 2: note = 2-Aminoisobutyric Acid; SITE 6: note = alpha-methyl-L-phenylalanine; SITE 10: note = 3-(4-Pyridyl)-L-alanine; SITE 11: note = alpha-methyl-L-serine; SITE 13: note = alpha-methyl-leucine; SITE 16: note = L-ornithine; SITE 17: note = Lysine is chemically modified th
B11: Example 1182 (peptide)
chain: YXQGTFTSDXXQXLDXKAQXQFIEXLIAXGPSSGEPPPSGGGE
modifications: non-natural residues; lysine acylated with C18 diacid; C-terminal amide; synthetic construct; SITE 2: note = 2-Aminoisobutyric Acid; SITE 10: note = 3-(4-Pyridyl)-L-alanine; SITE 11: note = alpha-methyl-L-serine; SITE 13: note = alpha-methyl-leucine; SITE 16: note = L-ornithine; SITE 17: note = Lysine is chemically modified through conjugation of the epsilon-amino group

These binders were tested against hGLP-1R (Homo sapiens, UniProt P43220) (assay: cell-based or functional assay).
hGLP-1R, sequence (P43220 24-463): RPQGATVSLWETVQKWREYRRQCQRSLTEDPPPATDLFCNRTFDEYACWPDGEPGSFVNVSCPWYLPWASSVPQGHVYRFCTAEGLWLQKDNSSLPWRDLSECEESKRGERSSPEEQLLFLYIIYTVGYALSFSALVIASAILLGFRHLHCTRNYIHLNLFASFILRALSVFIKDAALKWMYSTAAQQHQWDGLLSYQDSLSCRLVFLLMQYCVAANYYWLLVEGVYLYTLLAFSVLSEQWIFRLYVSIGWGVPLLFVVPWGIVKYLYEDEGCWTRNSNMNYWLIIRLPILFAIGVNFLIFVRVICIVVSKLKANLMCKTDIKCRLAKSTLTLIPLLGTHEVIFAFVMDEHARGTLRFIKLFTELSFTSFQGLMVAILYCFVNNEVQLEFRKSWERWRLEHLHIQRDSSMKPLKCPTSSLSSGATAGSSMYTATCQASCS

Row | Binder | Relative cAMP EC50 [nM] | cAMP Rel EC50 (in the presence of 1% HSA) [nM]
1 | B1 | 0.632 | 87.7
2 | B2 | 0.395 | 50.2
3 | B3 | 0.372 | 34.5
4 | B4 | 0.449 | 35.4
5 | B5 | 0.604 | 59.1
6 | B6 | 0.478 | 65.6
7 | B7 | 0.652 | 37.9
8 | B8 |  | 39
9 | B9 | 0.44 | 45.5
10 | B10 | 0.636 | 89.2
11 | B11 | 0.797 | 80.4

The binders below were run against T1, human GIP receptor (human) (UniProt P48546) (assay: cell-based or functional assay).
T1 sequence (looked up): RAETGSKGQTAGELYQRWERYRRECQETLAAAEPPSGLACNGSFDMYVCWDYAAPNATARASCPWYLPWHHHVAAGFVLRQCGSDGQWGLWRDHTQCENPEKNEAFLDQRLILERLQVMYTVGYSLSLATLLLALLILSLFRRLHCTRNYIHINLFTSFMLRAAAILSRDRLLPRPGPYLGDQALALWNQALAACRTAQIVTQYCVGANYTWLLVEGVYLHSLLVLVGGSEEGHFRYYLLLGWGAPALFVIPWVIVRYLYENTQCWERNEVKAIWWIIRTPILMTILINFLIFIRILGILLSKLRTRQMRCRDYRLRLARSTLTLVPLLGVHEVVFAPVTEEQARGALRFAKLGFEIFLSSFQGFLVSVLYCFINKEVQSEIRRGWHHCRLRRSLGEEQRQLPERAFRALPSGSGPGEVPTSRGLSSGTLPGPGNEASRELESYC

Row | Binder | Relative cAMP EC50 [nM] | cAMP Rel EC50 (in the presence of 1% HSA) [nM]
12 | B1 | 0.0121 | 1.36
13 | B2 | 0.00783 | 0.663
14 | B3 | 0.00818 | 0.656
15 | B4 | 0.00951 | 0.721
16 | B5 | 0.00943 | 0.764
17 | B6 | 0.00999 | 1.1
18 | B7 | 0.0102 | 0.58
19 | B8 |  | 0.544
20 | B9 | 0.00886 | 0.7
21 | B10 | 0.011 | 1.22
22 | B11 | 0.0316 | 2.73

What follows are binders tested against human glucagon receptor (human) (UniProt P47871) (assay: cell-based or functional assay).
human glucagon receptor (human), sequence (P47871 26-477): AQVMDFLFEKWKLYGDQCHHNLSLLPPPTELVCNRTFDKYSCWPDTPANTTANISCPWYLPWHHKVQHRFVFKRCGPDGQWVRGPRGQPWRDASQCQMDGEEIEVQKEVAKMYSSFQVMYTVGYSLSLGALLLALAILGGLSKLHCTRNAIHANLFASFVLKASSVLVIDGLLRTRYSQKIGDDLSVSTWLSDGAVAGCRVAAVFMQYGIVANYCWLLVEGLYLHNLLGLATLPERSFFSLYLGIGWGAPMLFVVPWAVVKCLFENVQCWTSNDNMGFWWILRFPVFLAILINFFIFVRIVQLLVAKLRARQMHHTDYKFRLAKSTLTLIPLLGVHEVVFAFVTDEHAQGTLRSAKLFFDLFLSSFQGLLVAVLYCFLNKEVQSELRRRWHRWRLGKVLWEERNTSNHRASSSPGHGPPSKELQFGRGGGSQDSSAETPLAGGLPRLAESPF

Row | Binder | Relative cAMP EC50 [nM] | cAMP Rel EC50 (in the presence of 1% HSA) [nM]
23 | B1 | 2.68 | 358
24 | B2 | 2.43 | 249
25 | B3 | 2.55 | 199
26 | B4 | 1.75 | 163
27 | B5 | 2.31 | 254
28 | B6 | 2.94 | 427
29 | B7 | 2.87 | 197
30 | B8 |  | 270
31 | B9 | 2.52 | 303
32 | B10 | 2.16 | 274
33 | B11 | 1.24 | 172
